Results published in patent US20100221262A1.
Where a chain is given by its changes, count along the chain named. One block for each binder: values may come before it.

What was measured:
[1] = target: human Unc5B-His (two N-terminal Ig-like domains of Unc5B, amino acid M1 to amino acid V243, C-terminal Histidine tag) (human) (UniProt Q8IZJ1); assay: SPR (ProteOn XPR36), antibody immobilised, human Unc5B-His as analyte
[2] = target: Murine Unc5B (mouse) (UniProt Q8K1S3); assay: SPR (ProteOn XPR36), antibody immobilised, murine Unc5B-His as analyte
Murine Unc5B (mouse), sequence (Q8K1S3 27-243 limits assumed, form in doubt): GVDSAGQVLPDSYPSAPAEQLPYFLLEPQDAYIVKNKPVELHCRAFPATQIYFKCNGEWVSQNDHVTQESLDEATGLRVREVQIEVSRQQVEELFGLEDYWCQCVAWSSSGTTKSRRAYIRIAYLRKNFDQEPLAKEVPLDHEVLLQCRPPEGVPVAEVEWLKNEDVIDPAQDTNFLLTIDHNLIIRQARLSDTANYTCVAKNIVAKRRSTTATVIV

B1: YW 88.7 (antibody, part only; not given: constant regions, part only)
heavy chain, part: EVQLVESGGGLVQPGGSLRLSCAASGFTFSDNWISWVRQAPKGLEWVGGIYPAGGYTYYADSVKGRFTISADTSKNTAYLQMSLRAEDTAVYYCAHDIHTRIAVMDYWGQGTLVTVSS
light chain: DIQMTQSPSSLSASVGDRVTITCRASQDVSTAVAWYQQKPGKAPKLLIYSASFLYSGVPSRFSGSGSGTDFTLTISSLQPEDFATYYCQQSYTTPPTFGQGTKVEIKR
Kd [1]: 20 nM
Kd [2]: 1.1 nM

B3: YW 88.64 (antibody, part only; not given: constant regions, part only)
heavy chain, part: EVQLVESGGGLVQPGGSLRLSCAASGFTFSNSGISWVRQAPKGLEWVGYIYPDNGSTNYADSVKGRFTISADTSKNTAYLQMSLRAEDTAVYYCARGVWWFDYWGQGTLVTVSS
light chain: B1 light chain
Kd [1]: 84 nM

The next binders have a lower Kd [1] than those just listed; values first:

Kd [1]: 4.1 nM
B4: YW 83.7 (antibody, part only; not given: constant regions, part only)
heavy chain, part: EVQLVESGGGLVQPGGSLRLSCAASGFTFTGSSIHWVRQAPKGLEWVGWITPNGGYTNYADSVKGRFTISADTSKNTAYLQMSLRAEDTAVYYCARQSWVLRGWAMDYWGQGTLVTVSS
light chain: B1 light chain

Kd [1]: 2.9 nM
B2: YW 83.4 (antibody, part only; not given: constant regions, part only)
heavy chain, part: B4 heavy chain, part with G31N, S32Y, S33D, T51S, N53S, S98L, V100A, L101V, A105V
light chain: B1 light chain
